B1: fluoresceinated MERS2 peptide F-SVSKQAVCLMERHLRRVPGARRNELKVALSKELKER [modified: fluorescein (F-) printed at the N-terminus; fluorescein (F-) printed at the N-terminus] [T. brucei] / T. brucei MERS1(37–395), his-tagged [Trypanosoma brucei … (parent complex)
chain 1: SVSKQAVCLMERHLRRVPGARRNELKVALSKELKER
chain 2: LVPRGSMDDALRGELASALDTEGHALPFDVHLQQPHSSGDGTAGDTSTIQLEKLSHPPARFDLLTNSFVYKWQTKAALARKVSGPMREWAAELKYRTGVHIELEPTYPERLSENAVKGSGSDDGDGTQWGAYETADDVDITVYLFGSERGIFNCHKLMEAAIQQDPVYVRLGIFRRLANSSEVEWLMLRRINRELRPPDIPPISLKLPGKWTLLYERYKEAAIRTLWEETGITVDASNVYPTGHLYQTVPQYYWRVPVRYFVAEVPSDIRVEGPQVVPLQYMRNWDARLLRQSPDPIDRAWAQLADPATGCAWMKASMIDQLQKPLRGDNYMAIRYTPPPYSNLQEVVGLGDGSITPSTGNGEDAS

In the assay the parent is B1. Kind of assay: fluorescence polarization; value read at the highest MERS1 concentration point, about 13.3 µM (estimated from the x axis); parent: 53; read off a plot.
As to chain 1 SVSKQAVCLMERHLRRVPGARRNELKVAPSKPLKER [chain 1 L29P, chain 1 E32P], the response was approximately 21 mP.

These data come from article PMC6913127, “Structures of MERS1, the 5′ processing enzyme of mitochondrial mRNAs in Trypanosoma brucei” (RNA, 2020).
